Results taken from PMC7145629.
Like-named read-outs stand apart in the source and are kept apart here.

What was measured:
Test in all cases: EMSA
DNMT3B;DNMT3L = DNMT3B;DNMT3L (human;human, UniProt Q9UBC3;Q9UJW3 562-853;178-386, |)
[1] = target: T1, DNMT1 (BAH1-BAH2-MTase fragment) (human, UniProt P26358 728-1600)
DNMT3A;DNMT3L = DNMT3A;DNMT3L (human;human, UniProt Q9Y6K1;Q9UJW3 628-912;178-386, |)
[2] = target: T1, DNMT1 (BAH1-BAH2-MTase fragment); remark: listed apart in the source
[3] = target: T1, DNMT1 (BAH1-BAH2-MTase fragment); remark: listed apart in the source
[4] = target: T1, DNMT1 (BAH1-BAH2-MTase fragment); remark: listed apart in the source
[5] = target: T1, DNMT1 (BAH1-BAH2-MTase fragment); remark: listed apart in the source

T1 sequence (P26358 728-1600): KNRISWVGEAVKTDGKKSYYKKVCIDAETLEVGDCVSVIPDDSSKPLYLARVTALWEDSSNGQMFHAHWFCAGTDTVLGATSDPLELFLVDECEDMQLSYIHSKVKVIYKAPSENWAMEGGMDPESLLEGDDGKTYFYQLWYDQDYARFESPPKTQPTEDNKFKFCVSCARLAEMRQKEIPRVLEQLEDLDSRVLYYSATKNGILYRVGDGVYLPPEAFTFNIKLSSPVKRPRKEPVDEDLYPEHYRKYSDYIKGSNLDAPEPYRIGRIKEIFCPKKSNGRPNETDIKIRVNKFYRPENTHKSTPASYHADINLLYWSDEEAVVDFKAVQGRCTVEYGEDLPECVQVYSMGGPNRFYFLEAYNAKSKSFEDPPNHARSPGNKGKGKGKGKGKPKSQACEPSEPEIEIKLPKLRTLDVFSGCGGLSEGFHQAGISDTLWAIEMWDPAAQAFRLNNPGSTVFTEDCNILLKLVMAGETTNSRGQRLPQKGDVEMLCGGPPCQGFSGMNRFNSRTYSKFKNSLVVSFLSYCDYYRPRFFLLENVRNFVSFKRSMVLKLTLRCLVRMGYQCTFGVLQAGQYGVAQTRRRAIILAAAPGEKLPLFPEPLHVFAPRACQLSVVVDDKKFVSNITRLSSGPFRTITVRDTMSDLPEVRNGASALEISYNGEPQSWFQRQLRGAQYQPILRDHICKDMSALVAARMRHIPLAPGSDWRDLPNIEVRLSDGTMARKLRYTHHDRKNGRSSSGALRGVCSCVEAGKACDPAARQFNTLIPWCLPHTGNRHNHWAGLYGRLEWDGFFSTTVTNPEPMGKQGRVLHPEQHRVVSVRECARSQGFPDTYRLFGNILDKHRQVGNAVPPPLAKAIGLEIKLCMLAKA
Sequence of DNMT3B;DNMT3L (Q9UJW3 178-386, chain 2 of 2, other chains not shown): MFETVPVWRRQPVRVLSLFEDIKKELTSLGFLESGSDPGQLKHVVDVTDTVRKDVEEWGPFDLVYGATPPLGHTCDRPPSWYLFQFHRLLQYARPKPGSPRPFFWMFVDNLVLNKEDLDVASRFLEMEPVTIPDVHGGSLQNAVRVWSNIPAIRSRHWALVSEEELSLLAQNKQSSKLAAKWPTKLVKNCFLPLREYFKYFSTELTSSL
Sequence of DNMT3A;DNMT3L (Q9Y6K1 628-912, chain 1 of 2): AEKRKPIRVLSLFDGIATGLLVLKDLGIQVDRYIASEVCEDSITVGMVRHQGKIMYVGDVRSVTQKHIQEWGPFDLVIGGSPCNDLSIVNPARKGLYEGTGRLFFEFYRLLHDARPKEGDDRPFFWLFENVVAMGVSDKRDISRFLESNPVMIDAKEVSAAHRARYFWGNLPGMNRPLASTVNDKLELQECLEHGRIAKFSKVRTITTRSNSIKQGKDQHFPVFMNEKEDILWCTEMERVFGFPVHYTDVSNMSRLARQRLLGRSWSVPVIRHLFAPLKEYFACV
Sequence of DNMT3A;DNMT3L (Q9UJW3 178-386, chain 2 of 2): as the sequence (Q9UJW3 178-386, chain 2 of 2, other chains not shown) above

## AGAAGTGGGGGTGAGTCCACTTCTG (ssDNA) [Apt. #9]
DNMT3B;DNMT3L
  binding result: no binding
[1]
  Kd: 770 ± 110 nM
DNMT3A;DNMT3L
  binding result: no binding

## CGTCAGATGTGCGAGTGACATCTCAACGG (ssDNA) [Modified ssDNA #5]
[1]
  binding result: no binding

## CGTAGATGTGCTGACATCTACGG (ssDNA) [Modified ssDNA #6]
[1]
  binding result: no binding

## CAGATGTGCGAGTGACATCTC (ssDNA) [Modified ssDNA #7]
[2]
  binding result: no binding

## CGTAGATGTGCGAGTGACATCTACGG (ssDNA) [Apt. #8]
[1]
  binding result: binds

## CCCATGCGTAGGGTCTGATGCCTATGCGTG (ssDNA) [Apt. #10]
[1]
  binding result: binds

## AGATGTGCGAGTGACATCTCAACGGCCTAT (ssDNA) [Apt. #11]
[1]
  binding result: binds

## TGCGAGTGACATCTCAACGG (ssDNA) [non-binding ssDNA #12]
[1]
  binding result: no binding

## ATAGAAGTGGGGGTGAGTCCACTTCTATG (ssDNA) [Steml]
[3]
  binding result: binds

## AGATCTGGGGGTGAGTCCACTTCTG (ssDNA) [Bulge2]
[3]
  binding result: binds

B1: hemiDNA 36-mer (dsDNA)
DNA 1: GACGACGACGACGACGACGACGACGACGACGACGAC
DNA 2: GTCGTCGTCGTCGTCGTCGTCGTCGTCGTCGTCGTC
modifications: 5-methylcytosine at every C of strand 2
[4]
  binding signal: ~4 fold weaker than Apt. #9

## CCCGGGACGCGGGUCCGGGACAG (ssRNA) [R2 RNA]
[5]
  binding signal: ~4 fold less binding than Apt. #9
